These results are taken from patent US20260185093.

The data set has as its system T1, SpuFz1 (FZID16) (Spizellomyces punctatus).
T1 sequence: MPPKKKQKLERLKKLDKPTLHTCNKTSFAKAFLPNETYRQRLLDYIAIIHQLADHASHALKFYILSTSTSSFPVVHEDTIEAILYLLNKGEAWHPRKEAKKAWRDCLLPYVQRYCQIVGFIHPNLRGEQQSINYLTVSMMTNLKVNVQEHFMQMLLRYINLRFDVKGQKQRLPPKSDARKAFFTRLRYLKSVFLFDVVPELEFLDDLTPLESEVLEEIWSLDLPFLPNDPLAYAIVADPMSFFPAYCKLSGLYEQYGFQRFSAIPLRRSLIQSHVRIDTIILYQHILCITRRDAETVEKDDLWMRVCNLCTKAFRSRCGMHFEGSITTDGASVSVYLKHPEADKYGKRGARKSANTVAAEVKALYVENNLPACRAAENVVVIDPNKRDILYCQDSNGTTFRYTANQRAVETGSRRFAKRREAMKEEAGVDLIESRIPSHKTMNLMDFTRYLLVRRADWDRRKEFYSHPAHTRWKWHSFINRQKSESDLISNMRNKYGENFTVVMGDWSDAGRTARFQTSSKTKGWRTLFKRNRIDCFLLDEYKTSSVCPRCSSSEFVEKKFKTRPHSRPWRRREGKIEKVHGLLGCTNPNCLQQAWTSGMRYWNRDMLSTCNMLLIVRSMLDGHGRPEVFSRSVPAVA
The experiment in a line: cell_activity. Particulars: HEK293FT, TAM CATA.

Where the note is “gID7, longest initial scaffold”, “GUCCACGGACUGCUGGGUUGUACCAACCCUAACUGUUUGCAGCAAGCCUGGACAUCGGGAAUGCGCUACUGGAAUCGAGAUAUGCUGUCAACCUGCAACAUGCUAUUGAUUGUGAGAUCAAUGUUGGAUGGACACGGUAGACCAGAAGUGUUCAGCAGGAGUGUUCCAGCCGUAGCGUAGAACGUAGAUUGGUUAGAUUAGGUUUUCCGAGCCGGUUGUCGCGCGGUUCAAUCCCUGGUGCGGGUGCUAGUGCCAAUACCCACCGGCUCCGCACUAGCAUUCCUUAACACAUCACU / GCATTCCTTAACACATCACT / AGTGATGTGTTAAGGAATGC” returned an activity of 0.78 % indel.
As to “GUUUUCCGAGCCGGUUGUCGCGCGGUUCAAUCCCUGGUGCGGGUGCUAGUGCCAAUACCCACCGGCUCCGCACUAGCAUUCCUUAACACAUCACU / GCATTCCTTAACACATCACT / AGTGATGTGTTAAGGAATGC”, where the note is “gID7, minimal omegaRNA”, the activity is 0.17 % indel.
